Measurements published in IntAct's records for PubMed 18820298.

B1: CCAAT/enhancer-binding protein beta (Homo sapiens), P17676-2 (parent)
chain: MEVANFYYEADCLAAAYGGKAAPAAPPAARPGPRPPAGELGSIGDHERAIDFSPYLEPLGAPQAPAPATATDTFEAAPPAPAPAPASSGQHHDFLSDLFSDDYGGKNCKKPAEYGYVSLGRLGAAKGALHPGCFAPLHPPPPPPPPPAELKAEPGFEPADCKRKEEAGAPGGGAGMAAGFPYALRAYLGYQAVPSGSSGSLSTSSSSSPPGTPSPADAKAPPTACYAGAAPAPSQVKSKAKKTVDKHSDEYKIRRERNNIAVRKSRDKAKMRNLETQHKVLELTAENERLQKKVEQLSRELSTLRNLFKQLPEPLLASSGHC

Variants of: B1
Details: with hdac4_human HDAC4, P56524
Chain of hdac4_human HDAC4, P56524 (P56524 whole entry): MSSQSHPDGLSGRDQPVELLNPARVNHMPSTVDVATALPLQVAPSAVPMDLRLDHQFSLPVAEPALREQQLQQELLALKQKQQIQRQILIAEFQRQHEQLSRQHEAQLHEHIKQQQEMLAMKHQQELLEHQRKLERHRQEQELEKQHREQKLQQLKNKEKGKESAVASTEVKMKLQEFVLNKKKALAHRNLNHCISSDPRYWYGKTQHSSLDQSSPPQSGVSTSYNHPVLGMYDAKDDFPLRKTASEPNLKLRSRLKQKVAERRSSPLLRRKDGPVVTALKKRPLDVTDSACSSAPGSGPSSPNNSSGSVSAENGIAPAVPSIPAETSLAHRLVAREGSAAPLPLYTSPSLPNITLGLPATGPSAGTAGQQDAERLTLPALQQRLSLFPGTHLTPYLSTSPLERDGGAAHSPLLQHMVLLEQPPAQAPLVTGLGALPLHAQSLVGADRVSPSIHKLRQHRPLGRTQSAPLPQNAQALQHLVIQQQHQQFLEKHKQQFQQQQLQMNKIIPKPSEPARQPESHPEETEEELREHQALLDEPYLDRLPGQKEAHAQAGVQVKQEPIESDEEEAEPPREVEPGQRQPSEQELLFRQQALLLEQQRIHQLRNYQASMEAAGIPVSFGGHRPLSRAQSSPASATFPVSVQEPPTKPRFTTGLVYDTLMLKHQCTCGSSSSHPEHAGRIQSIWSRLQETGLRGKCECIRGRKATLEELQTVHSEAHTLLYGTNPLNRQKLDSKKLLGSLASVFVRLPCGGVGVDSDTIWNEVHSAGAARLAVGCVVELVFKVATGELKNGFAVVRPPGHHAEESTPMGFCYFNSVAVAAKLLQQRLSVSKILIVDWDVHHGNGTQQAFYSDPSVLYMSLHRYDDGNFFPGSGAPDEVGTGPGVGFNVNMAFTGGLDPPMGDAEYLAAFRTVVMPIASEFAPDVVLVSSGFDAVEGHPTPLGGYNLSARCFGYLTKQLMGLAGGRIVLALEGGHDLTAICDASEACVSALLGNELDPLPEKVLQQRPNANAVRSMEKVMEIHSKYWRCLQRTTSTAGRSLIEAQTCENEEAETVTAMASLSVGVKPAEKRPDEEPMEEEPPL

| Variant | effect of a mutation on the interaction |
| --- | --- |
| MEVANFYYEADCLAAAYGGKAAPAAPPAARPGPRPPAGELGSIGDHERAIDFSPYLEPLGAPQAPAPATATDTFEAAPPAPAPAPASSGQHHDFLSDLFSDDYGGKNCKKPAEYGYVSLGRLGAAKGALHPGCFAPLHPPPPPPPPPAELAAEPGFEPADCKRKEEAGAPGGGAGMAAGFPYALRAYLGYQAVPSGSSGSLSTSSSSSPPGTPSPADAKAPPTACYAGAAPAPSQVKSKAKKTVDKHSDEYKIRRERNNIAVRKSRDKAKMRNLETQHKVLELTAENERLQKKVEQLSRELSTLRNLFKQLPEPLLASSGHC [K151A] | with no effect |
